Results published in US20140289906A1, “Compositions Having Dicamba Decarboxylase Activity and Methods of Use” (priority 2013, published 2014).
“Also recorded” adds a separate entry of the source.

Tests used:
[1] = 14C assay: 14CO2 capture from [14C]-carboxyl-labeled dicamba with purified protein; assay type: biochemical
[2] = LC-MS/MS detection of 4-chloro-3-methoxy phenol; assay type: biochemical; details: purified protein, dicamba
Experimental: The decarboxylated and chloro hydrolyzed product, 4-chloro-3-methoxy phenol (FIG. 1D), is measured using a LC-MS/MS analytical procedure. […] 10 ul is removed from the reaction mixture and mixed with 90 ul pre-chilled methanol followed by centrifugation at 14,000 rpm for 15 min at 4° C. 10 ul of the supernatant is then transferred into 170 ul ddH2O to achieve 5% methanol solution for injection. 50 ul of the prepared sample is injected into a 4000 Q Trap LC-MS/MS system for sample analysis. LC-MS/MS parameters are: Mobile Phase A, 2 mM ammonium acetate in water; Mobile Phase B, 2 mM ammonium acetate in methanol; Column, Aquasil, 100×2.1 mm, 3 μm, C18 column; Flow Rate, 0.6 ml/min. The MS/MS fragment 157/142 which is common to 4-chloro-3-methoxy phenol, 2-chloro-5-methoxy phenol, and 3-chloro-5-methoxy phenol is monitored at a retention time of 2.88 min.

[3] = GC/MS detection of 2,5-dichloro phenol (2,5-DCP); kinetic determination; assay type: biochemical; details: purified protein, dicamba
Experimental: The decarboxylated and demethylated product of dicamba, 2,5-dichloro phenol or 2,5-DCP (FIG. 1E) is measured using a GC/MS analytical procedure with either liquid injection after liquid/liquid extraction using toluene as the extraction solvent or gas injection using head space method. The head space sample analysis is carried out on an Agilent GC/MS system with a 6890A GC, a 5973N MSD and a CTC CombiPAL auto-sampler or with a 7890A GC, a 5975C MSD and an Agilent GC Sampler 80 auto-sampler with Phenomenex ZB-MultiResidue-1 column (30 m length, 0.25 mm diameter, 0.25 um film) or equivalent. GC/MS parameters are: GC inlet temperature, 200° C.; Carry gas, helium in constant flow mode (1.2 mL/min); Oven temperature program, 70° C. for 1 min and then ramp to 275° C. at 40° C./min. […] The reaction vial is transferred to a agitator for incubation at 90° C. for 4 min at 500 rpm. With a syringe preheated at 110° C., 1000 uL of head space is injected with sample fill speed at 100 uL/sec. A 2-mm diameter liner is used in sample inlet. The MS data acquisition is done in SIM (selected ion monitoring) mode. The positive ion at M/Z 162 for the molecular ion of 2,-5-DCP is monitored at retention time of 4.06 min. Solvent delay for MS acquisition is set at 3 min. GC/MS parameters for liquid sample analysis are the same as those for head space analysis, except that the volume of liquid injection is 1 uL.

[4] = 14C assay: 14CO2 capture from [14C]-carboxyl-labeled dicamba with IPTG-induced recombinant E. coli cells; details: for Dicamba Decarboxylase Activity: IPTG-induced recombinant E. coli cells, 14CO2 from [14C]-carboxyl-labeled dicamba; for decarboxylation activity of dicamba: among the 108 sequences tested, recombinant E. coli cell assay; for Enzymatic Detection level: dicamba decarboxylation activity
[5] = Dicamba decarboxylation activity of computationally designed protein variants and parents (Tables 4, 5); details: for dicamba decarboxylase activity (statement in the description): native proteins and designed variants, assay not specified; for Percent Activity Improvement Over Parent (%): parent (SEQ ID NO: 1 or SEQ ID NO: 41) = 100

B1: 32 (protein)
chain: MARIIAIEEHFLDLDIARASRPEAERLSPAFAAAYGAGQGYNYSPAPEVLLDLEEGRVADMDAHGISMQVLSSLSTQQLPADVAVELVRKVNDRAAAAVAARPDRFAAFAALPTTVPEAAADELDRAVGELGFVGSMINGRTGDAFLDAPRFDAVLRRSAELRVPVYLHPGVPPVETSRSNYEGGLDPIVTARLQTSAWGWHVETGIHFLHLVLAGVFDRYPDLQVILGHWGEMVPFFLERIEEALPQQITHLDRPVGAYFRENAHITPSGMFSQAQLQFCVETVGIERIMFSVDYPFLGNDGAEAFLRQANLPPLATEKIAHLNAERLLALPS
modifications: Streptomyces violaceusniger
[1]
  CO2 product detected: detected
[2]
  4-chloro-3-methoxy phenol product detected: detected
[3]
  2,5-DCP product detected: detected
[4]
  Dicamba Decarboxylase Activity: High
  decarboxylation activity of dicamba: showed decarboxylation activity of dicamba
  Enzymatic Detection level: High

B2: 116 (protein)
chain: MAQGKVALEEHFAIPETLQDAAGFVPGDYWKELQHRLLDIQDRRVRLMDEHGIETMILSLNAPAVQAIADSTRANETARRANDFLAEQVAKQPTRFRGFAALPMQDPELAARELERCVKELGFVGALVNGFSQDNRSAVPLYYDMAQYWPFWETVQALDVPFYLHPRNPLPSDARIYDGHAWLLGPTWAFGQETAVHALRLMGSGLFDKYPALKIILGHMGEGLPYSMWRIDHRNAWIKTTPKYPAKRKIVDYFNENFYLTTSGNFRTQTLIDAILEIGADRILFSTDWPFENIDHAADWFENTSISEADRKKIGWGNAQNLFKLNR
modifications: Dicamba decarboxylase variant clone DC.30.007
[1]
  CO2 product detected: detected
[2]
  4-chloro-3-methoxy phenol product detected: detected
[5]
  dicamba decarboxylase activity (statement in the description): improved dicamba decarboxylase activity; also recorded: displays an increase in dicamba decarboxylase activity
  Percent Activity Improvement Over Parent (%): 220%
[3]
  2,5-DCP product detected: detected
[4]
  Enzymatic Detection level: High

B3: 114 (protein)
chain: MAQGKVALEEHFAIPETLQDSAGAVPGDYWKELQHRLLDIQDTRLKLMDAHGIETMILSLNAPAVQAIPDRRKAIEIARRANDVLAEECAKRPDRFLAFAALPLQDPDAATEELQRCVNDLGFVGALVNGFSQEGDGQTPLYYDLPQYRPFWGEVEKLDVPFYLHPRNPLPQDSRIYDGHPWLLGPTWAFAQETAVHALRLMASGLFDEHPRLNIILGHMGEGLPYMMWRIDHRVAWVKLPPRYPAKRRFMDYFNENFHITTSGNFRTQTLIDAILEIGADRILFSTDWPFENIDHASDWFNATSIAEADRVKIGRTNARRLFKLDGA
modifications: Dicamba decarboxylase variant clone DC.4.116
[1]
  CO2 product detected: detected
[2]
  4-chloro-3-methoxy phenol product detected: detected
[5]
  dicamba decarboxylase activity (statement in the description): displays an increase in dicamba decarboxylase activity
[3]
  2,5-DCP product detected: detected
[4]
  Enzymatic Detection level: High

B4: 110 (protein)
chain: MAQGKVALEEHFAIPETLQDSMGFVPGDYWKELMHRLLDIQDTRLKLMDAHGIETMILSLNAPAVQAIPDRRKAIEIARRANDVLAEECAKRPDRFLAFAALPLQDPDAATEELQRCVNDLGFVGALVNGFSQEGDGQTPLYYDLPQYRPFWGEVEKLDVPFYLHPRNPLPQDSRIYDGHPWLLGPTWAFAQETAVHALRLMASGLFDEHPRLNIILGHMGEGLPYMMWRIDHRMAWVKLPPRYPAKRRFMDYFNENFHITTSGNFRTQTLIDAILEIGADRILFSTDWPFENIDHASDWFNATSIAEADRVKIGRTNARRLFKLDGA
modifications: Dicamba decarboxylase variant clone DC.4.111
[1]
  CO2 product detected: detected
[2]
  4-chloro-3-methoxy phenol product detected: detected
[5]
  dicamba decarboxylase activity (statement in the description): displays an increase in dicamba decarboxylase activity
[3]
  2,5-DCP product detected: detected
[4]
  Enzymatic Detection level: High

B5: 109 (protein)
chain: MAQGKVALEEHFAIPETLQDSAGFVPGDYWKELQHRLLDIQDTRLKLMDAHGIETMILSLNAPAVQAIPDRRKAIEIARRANDVLAEECAKRPDRFLAFAALPLQDPDAATEELQRCVNDLGFVGALVNGFSQEGDGQTPLYYDLPQYRPFWGEVEKLDVPFYLHPRNPLPQDSRIYDGHPWLLGPTWAFAQETAVHALRLMASGLFDEHPRLNIILGHMGEGLPYMMWRIDHRVAWVKLPPRYPAKRRFMDYFNENFHITTSGNFRTQTLIDAILEIGADRILFSTDWPFENIDHASDWFNATSIAEADRVKIGRTNARRLFKLDGA
modifications: Dicamba decarboxylase variant clone DC.4.032
[1]
  CO2 product detected: detected
[2]
  4-chloro-3-methoxy phenol product detected: detected
[5]
  dicamba decarboxylase activity (statement in the description): more active than their parent sequence; also recorded: displays an increase in dicamba decarboxylase activity
[3]
  2,5-DCP product detected: detected
[4]
  Enzymatic Detection level: High

B6: 108 (protein, listed as Staphylococcus aureus)
chain: MAKSITFEEHYVIEDIQKETMNAISADPKGVPMKVMLEGLEKKTGFTNADELSHHDERIQFMNNQDVQIQVLSYGNGSPSNLVGQKAIELCQKANDQLANYIAQYPNRFVGFATLPINEPEAAAREFERCINDLGFKGALIMGRAQDGFLDQDKYDIIFKTAENLDVPIYLHPAPVNSDIYQSYYKGNYPEVTAATFACFGYGWHIDVGIHAIHLVLSGIFDRYPKLNMIIGHWGEFIPFFLERMDEALFAEHLNHSVSYYFKNSFYITPSGMLTKPQFDLVKKEVGIDRILYAADYPYIEPEKLGVFLDELGLTDEEKEKISYTNGAKLLGLSSNN
[1]
  CO2 product detected: detected
[2]
  4-chloro-3-methoxy phenol product detected: detected
[3]
  2,5-DCP product detected: detected
[4]
  Dicamba Decarboxylase Activity: High
  decarboxylation activity of dicamba: showed decarboxylation activity of dicamba
  Enzymatic Detection level: High

B7: 41 (protein, listed as Polaromonas sp.)
chain: MANGKIALEEHFATEETLMDSAGFVPDKDWPELRSRLLDIQDRRVRLMDEHGIETMILSLNAPAVQAIADSTRANETARRANDFLAEQVAKQPTRFRGFAALPMQDPELAARELERCVKELGFVGALVNGFSQDNRSAVPLYYDMAQYWPFWETVQALDVPFYLHPRNPLPSDARIYDGHAWLLGPTWAFGQETAVHALRLMGSGLFDKYPALKIILGHMGEGLPYSMWRIDHRNAWIKTTPKYPAKRKIVDYFNENFYLTTSGNFRTQTLIDAILEIGADRILFSTDWPFENIDHAADWFENTSISEADRKKIGWGNAQNLFKLNR
[1]
  CO2 product detected: detected
[2]
  4-chloro-3-methoxy phenol product detected: detected
[5]
  dicamba decarboxylase activity (statement in the description): natural activity; also recorded: native dicamba decarboxylase activity
  Percent Activity Improvement Over Parent (%): 100%
[3]
  2,5-DCP product detected: detected
[4]
  Dicamba Decarboxylase Activity: High
  decarboxylation activity of dicamba: showed decarboxylation activity of dicamba
  Enzymatic Detection level: High

B8: 115 (protein)
chain: MAQGKVALEEHFAIPDTLTTYTTSGDYEKELKHRLLDIQDTRLKLMDAHGIETMILSLNAPGVQAIPDRRKAIEIARRANDVLAEECAKRPDRFLAFAALPLQDPDAATEELQRCVNDLGFVGALVNGFSQEGDGQTPLYYDLPQYRPFWGEVEKLDVPFYLHPRNPLPQDSRIYDGHPWLLGPTWAFAQETAVHALRLMASGLFDEHPRLNIILGHMGEGLPYMMWRIDHRNAWVKTPPRYPAKRRFMDYFNENFHITTSGNFRTQTLIDAILEIGADRILFSTDWPFENIDHASDWFNATSIAEADRVKIGRTNARRLFKLDGA
modifications: Dicamba decarboxylase variant clone DC.4.161
[1]
  CO2 product detected: detected
[2]
  4-chloro-3-methoxy phenol product detected: detected
[5]
  dicamba decarboxylase activity (statement in the description): displays an increase in dicamba decarboxylase activity
[3]
  2,5-DCP product detected: detected
[4]
  Enzymatic Detection level: High
